According to patent publication US20250034222A1, “IL-38 VARIANTS” (Monash University, priority 2021, published 2025):
Where a chain is given by its changes, count along the chain named. In names and notes the source's numbering stands. Entries after “also recorded” stand apart in the source; their conditions may differ.

B1: ΔT53: Locked homodimer IL-38 variant, T53 deleted (protein, UniProt Q8WWZ1 1-152, looked up, variant T53*)
Interleukin-1 family member 10: MCSLPMARYYIIKYADQKALYTRDGQLLVGDPVADNCCAEKICILPNRGLARKVPIFLGIQGGSRCLACVETEEGPSLQLEDVNIEELYKGGEEATRFTFFQSSSGSAFRLEAAAWPGWFLCGPAEPQQPVQLTKESEPSARTKFYFEQSW
B2: IL-38 (A51D): Variant of IL-38 that forms monomer; SNP rs6743376, mutation at residue 51 (A51D), residues 3-152 (protein)
chain: SLPMARYYIIKYADQKALYTRDGQLLVGDPVADNCCAEKICILPNRGLDRTKVPIFLGIQGGSRCLACVETEEGPSLQLEDVNIEELYKGGEEATRFTFFQSSSGSAFRLEAAAWPGWFLCGPAEPQQPVQLTKESEPSARTKFYFEQSW
B3: V55Q: Variant of IL-38 V55Q with increased capacity to form monomer, residues 3-152 (protein)
chain: B2 chain with D49A, V53Q
B4: V55T: Variant of IL-38 V55T with increased capacity to form monomer, residues 3-152 (protein)
chain: B2 chain with D49A, V53T
B5: T53N: Variant of IL-38 T53N with increased capacity to form monomer, residues 3-152 (protein)
chain: B2 chain with D49A, T51N
B6: WT IL-38: Wild-type IL-38, residues 3-152, alanine at position 51 (called D51A) (protein)
chain: B2 chain with D49A

How the values were obtained:
[1] = SEC analysis of monomer:dimer proportion of IL-38 variants upon purification; format: physicochemical; conditions: for capacity to form a homodimer / monomer: SEC upon purification, FIG. 11
Protocol: Recombinant IL-38 variants were expressed in BL21-CodonPlus(DE3)-RIL cells (Stratagene) by 0.5 mM IPTG induction (OD600 0.8) overnight at 18° C. Cells expressing IL-38 variants were lysed by sonication in 50 mM Tris-HCl (pH 8.0), 500 mM NaCl, 3 mM β-mercaptoethanol, and 30 mM imidazole. Cells were clarified by centrifugation, filtered through a 0.8 μm membrane, and bound to Ni-NTA resin (Qiagen) for 1 hour at 4° C. on a rotating platform. The resin was washed with 300 ml of 50 mM Tris-HCl (pH 8.0), 500 mM NaCl, 3 mM β-mercaptoethanol, and 30 mM imidazole. The protein was eluted from the Ni-NTA resin (Qiagen) in a buffer containing 50 mM Tris-HCl (pH 8.0), 500 mM NaCl, 3 mM β-mercaptoethanol, and 400 mM imidazole. Protein was further purified on a Superdex 75 Increase 10/300 GL column (Cytiva Life Sciences) in 10 mM HEPES (pH 7.2), 150 mM NaCl, and 2 mM DTT.
The number and elution volume of the elution peaks are indicative of whether the size of the recombinant protein corresponds to monomeric or dimeric IL-38 conformations or both conformations. The proportion of monomer: dimer for each mutant (FIGS. 9 and 11) were calculated by comparing the area under the monomer and dimer peaks from three individual purifications.

[2] = Analytical SEC of IL-38 variants upon extended incubation; format: physicochemical; conditions: 0.165 mg/ml, 37° C., 16 hours, Sorensen's phosphate buffer pH 7.0, 5% glycerol
Protocol: To examine the monomer-dimer equilibrium upon extended incubation, indicated IL-38 variants (residues 3-152, C-terminal His6 tag) were incubated at 0.165 mg/ml and 37° C. for 16 hours in Sorensen's phosphate buffer (0.13 M, pH 7.0) with 5% (v/v) glycerol. The monomer: dimer proportion was examined by analytical SEC on a Superdex 75 Increase 10/300 GL column (Cytiva Life Sciences).

[3] = tested on: IRF3/7; assay: Poly (I:C)-induced IRF3/7 Quanti-Luc in A549-Dual reporter cells; format: cell-based, Human; conditions: 1 ng/ml Poly (I:C) LMW, 100 nM/l to 100 fM/l variant, 20 h, dexamethasone 5 nM benchmark
Protocol: FIG. 17: IL-38-Fc reduces Poly (I:C)-induced IRF3/7 Quanti-Luc in Human NF-kB-SEAP & IRFLuc Reporter A549-Dual cells from Invivogen (lung epithelial cells). A549-Dual cells were pretreated for 1 h with lipofectamine and (1 ng/ml) Poly (I:C) low molecular weight (LMW) and then stimulated dose dependently (A) 100 nM/l, (B) 1 nM/l, (C) 10 pM/l, (D) 100 fM/l with different IL-38 variants or dexamethasone (5 nM) as benchmark for 20 h. […]
6 μl of A549 Dual cell supernatants or plain stimulation media (background control) and 15 μl of QUANTI-Luc™ solution (InvivoGen) were added to a 384-well plate (Opti-plate-384, PerkinElmer, #6007290) and immediately measured as per manufacturer's instructions. After background subtraction, the %-change in luciferase activity of IL-38 variants (1 nm/l)+Poly (I:C) treated conditions over poly (I:C)+vehicle-treated cells were calculated ([…] of cells treated with poly (I:C)+vehicle=100%).

[4] = SEC, area under monomer and dimer peaks

| Molecule | capacity to form a homodimer / monomer [1] | monomer-dimer equilibrium upon extended incubation [2] | reduction in poly (I:C)-induced IRF3/7 (Quanti-Luc) [3] | dimer formed upon purification [1, 4] [%] | monomer upon purification [1, 4] [%] |
| --- | --- | --- | --- | --- | --- |
| B1 | stable locked dimer | stable as a dimer | only marginal reduction |  |  |
| B2 | reduced capacity to form a homodimer | more stable monomer; also recorded: stable monomer |  |  |  |
| B3 | reduced capacity to form a homodimer |  |  |  |  |
| B4 | reduced capacity to form a homodimer |  |  |  |  |
| B5 | reduced capacity to form a homodimer |  |  |  |  |
| B6 |  | slow equilibrium between the two states | slightly less potent than A51D (non-fused) IL-38 | ~20 | ~80 |
